Reference: the RNAGym collection of RNA variant scans (doi:10.7554/elife.80360)

B1: HDV Ribozyme (parent)
chain: GGCCGGCAUGGUCCCAGCCUCCUCGCUGGCGCCGGCUGGGCAACAUUCCGAGGGGACCGUCCCCUCGGUAAUGGCGAAUGGGACCCA

Variants of: B1
Experiment: self-cleavage, relative activity (ratio to wild type); higher = more cleavage; co-transcriptional

Variant	self-cleavage
GGCCGGCAUGGUCCCAGCCUCCUCGCUGGCGCCGGCUGGGCAACAUUCAGAGGGGCCCGUCCCCUCGGUAAUGGCGAAUGGGACCCA [C49A A56C]	1.05
GGCCGGCAUGGUCCCAGCCUCCUCGCUGGCGCCGGCUGGGCAACAUUUCGAGGGGACCGUCCCCUUGGUAAUGGCGAAUGGGACCCA [C48U C66U]	0.947
GGCCGGCAUGGUCCCAGCCUCCUCGCUGGCGCCGGCUGGGCAACAUUUCGAGGGGACCGUCCCCUAGGUAAUGGCGAAUGGGACCCA [C48U C66A]	0.923
GGCCGGCAUGGUCCCAGCCUCCUCGCUGGCGCCGGCUGGGCAACAUUUCGAGGGGACCGUCCCCUGGGUAAUGGCGAAUGGGACCCA [C48U C66G]	0.658
GGCCGGCAUGGUCCCAGCCUCCUCGCUGGCGCCGGCUGGGCAACAUUUCGAGGGCACCGUCCCCUCGGUAAUGGCGAAUGGGACCCA [C48U G55C]	0.938
GGCCGGCAUGGUCCCAGCCUCCUCGCUGGCGCCGGCUGGGCAACAUUUCGAGGGGACCGUCCCCUCGGUAAUGGCCAAUGGGACCCA [C48U G76C]	1.16
GGCCGGCAUGGUCCCAGCCUCCUCGCUGGCGCCGGCUGGGCAACAUUUCGAGAGGACCGUCCCCUCGGUAAUGGCGAAUGGGACCCA [C48U G53A]	0.888
GGCCGGCAUGGUCCCAGCCUCCUCGCUGGCGCCGGCUGGGCAACAUUUCGAGGGGACCGUCCCCUCGGUAAUGGCGAAUUGGACCCA [C48U G80U]	0.194
GGCCGGCAUGGUCCCAGCCUCCUCGCUGGCGCCGGCUGGGCAACAUUUCGAGGGGACCGUCCCCUCGGUAAUGGCGAAUGGGAGCCA [C48U C84G]	0.712
GGCCGGCAUGGUCCCAGCCUCCUCGCUGGCGCCGGCUGGGCAACAUUUCGAGGGGACCGUCCCCUCGGUAAUGGCGAUUGGGACCCA [C48U A78U]	0.298
GGCCGGCAUGGUCCCAGCCUCCUCGCUGGCGCCGGCUGGGCAACAUUUCGAGGGGACCGUCCCCUCGGUUAUGGCGAAUGGGACCCA [C48U A70U]	1.07
GGCCGGCAUGGUCCCAGCCUCCUCGCUGGCGCCGGCUGGGCAACAUUUCGAGGGGACCGUCCCCUCGGUGAUGGCGAAUGGGACCCA [C48U A70G]	0.997
GGCCGGCAUGGUCCCAGCCUCCUCGCUGGCGCCGGCUGGGCAACAUUUCGAGGGGACCGUCCCCUCGGUAAUAGCGAAUGGGACCCA [C48U G73A]	0.526
GGCCGGCAUGGUCCCAGCCUCCUCGCUGGCGCCGGCUGGGCAACAUUUCGAGGGGACCGUCCCCUCGGUAAUUGCGAAUGGGACCCA [C48U G73U]	0.521
GGCCGGCAUGGUCCCAGCCUCCUCGCUGGCGCCGGCUGGGCAACAUUGCGAGGGGACCGUCCCCUCGGUAAGGGCGAAUGGGACCCA [C48G U72G]	0.369
GGCCGGCAUGGUCCCAGCCUCCUCGCUGGCGCCGGCUGGGCAACAUUUCGAGGGGACCGUCCCCUCGGUAAUGGUGAAUGGGACCCA [C48U C75U]	0.211
GGCCGGCAUGGUCCCAGCCUCCUCGCUGGCGCCGGCUGGGCAACAUUUCGAGGGGACCGUCCCCUCGGUAAUGGGGAAUGGGACCCA [C48U C75G]	0.0852
GGCCGGCAUGGUCCCAGCCUCCUCGCUGGCGCCGGCUGGGCAACAUUUCGAGGGGACCGUCCCCUCGGUAAUGGCGAAUGGGACCCC [C48U A87C]	0.989
GGCCGGCAUGGUCCCAGCCUCCUCGCUGGCGCCGGCUGGGCAACAUUGCGAGGGGACCGUCCCCUCGGUAAUGGCGAAGGGGACCCA [C48G U79G]	0.795
GGCCGGCAUGGUCCCAGCCUCCUCGCUGGCGCCGGCUGGGCAACAUUGCGAGGGGACCGUCCCCUCGGUAAUGGCGAACGGGACCCA [C48G U79C]	0.345
GGCCGGCAUGGUCCCAGCCUCCUCGCUGGCGCCGGCUGGGCAACAUUUCGAGGGGACCGUACCCUCGGUAAUGGCGAAUGGGACCCA [C48U C61A]	0.87
GGCCGGCAUGGUCCCAGCCUCCUCGCUGGCGCCGGCUGGGCAACAUUUCGAGGGGACCGUGCCCUCGGUAAUGGCGAAUGGGACCCA [C48U C61G]	0.855

Variant	self-cleavage
GGCCGGCAUGGUCCCAGCCUCCUCGCUGGCGCCGGCUGGGCAACAUUUCGAGGGGUCCGUCCCCUCGGUAAUGGCGAAUGGGACCCA [C48U A56U]	0.987
GGCCGGCAUGGUCCCAGCCUCCUCGCUGGCGCCGGCUGGGCAACAUUUCGAAGGGACCGUCCCCUCGGUAAUGGCGAAUGGGACCCA [C48U G52A]	0.931
GGCCGGCAUGGUCCCAGCCUCCUCGCUGGCGCCGGCUGGGCAACAUUUCGAGGGGACCGUCCCCUCGGUAAGGGCGAAUGGGACCCA [C48U U72G]	0.639
GGCCGGCAUGGUCCCAGCCUCCUCGCUGGCGCCGGCUGGGCAACAUUUCGAGGGGACCGUCCACUCGGUAAUGGCGAAUGGGACCCA [C48U C63A]	0.791
GGCCGGCAUGGUCCCAGCCUCCUCGCUGGCGCCGGCUGGGCAACAUUUCGGGGGGACCGUCCCCUCGGUAAUGGCGAAUGGGACCCA [C48U A51G]	0.618
GGCCGGCAUGGUCCCAGCCUCCUCGCUGGCGCCGGCUGGGCAACAUUUCGCGGGGACCGUCCCCUCGGUAAUGGCGAAUGGGACCCA [C48U A51C]	0.919
GGCCGGCAUGGUCCCAGCCUCCUCGCUGGCGCCGGCUGGGCAACAUUUCGUGGGGACCGUCCCCUCGGUAAUGGCGAAUGGGACCCA [C48U A51U]	1.07
GGCCGGCAUGGUCCCAGCCUCCUCGCUGGCGCCGGCUGGGCAACAUUUCGAGGGGACCGUCCCCUCGGUAAUGGCGAAUGGGACGCA [C48U C85G]	0.941
GGCCGGCAUGGUCCCAGCCUCCUCGCUGGCGCCGGCUGGGCAACAUUCAGUGGGGACCGUCCCCUCGGUAAUGGCGAAUGGGACCCA [C49A A51U]	0.539
GGCCGGCAUGGUCCCAGCCUCCUCGCUGGCGCCGGCUGGGCAACAUUUCGAGGGGACCGUCCCCUCGGUAAUGGCGAAUGGGUCCCA [C48U A83U]	0.475
GGCCGGCAUGGUCCCAGCCUCCUCGCUGGCGCCGGCUGGGCAACAUUUCGAGGGGACCGUCCCCUCGGUAAUGGCGAAUGGGGCCCA [C48U A83G]	0.671
GGCCGGCAUGGUCCCAGCCUCCUCGCUGGCGCCGGCUGGGCAACAUUUCGAGGGGACCGUCCCCUCGGUAAUGGCGAAUGGGCCCCA [C48U A83C]	0.906
GGCCGGCAUGGUCCCAGCCUCCUCGCUGGCGCCGGCUGGGCAACAUUUCGAGGGGACCGUCCCCUCUGUAAUGGCGAAUGGGACCCA [C48U G67U]	1.27
GGCCGGCAUGGUCCCAGCCUCCUCGCUGGCGCCGGCUGGGCAACAUUUCGAGGGGACCGUCCCCUCCGUAAUGGCGAAUGGGACCCA [C48U G67C]	1.01
GGCCGGCAUGGUCCCAGCCUCCUCGCUGGCGCCGGCUGGGCAACAUUUCGAGGGGACCGUCCCCUCGGUAAUGGCGAAUGAGACCCA [C48U G81A]	0.308
GGCCGGCAUGGUCCCAGCCUCCUCGCUGGCGCCGGCUGGGCAACAUUUCGAGGGGACCGUCCCCUCGGUAAUGGCGAAUGCGACCCA [C48U G81C]	0.381
GGCCGGCAUGGUCCCAGCCUCCUCGCUGGCGCCGGCUGGGCAACAUUUCGAGGGGACCGUCCCCUCGGGAAUGGCGAAUGGGACCCA [C48U U69G]	0.869
GGCCGGCAUGGUCCCAGCCUCCUCGCUGGCGCCGGCUGGGCAACAUUUCGAGGGGACCGUCCCCUCGGUAAUGGCGCAUGGGACCCA [C48U A77C]	0.57
GGCCGGCAUGGUCCCAGCCUCCUCGCUGGCGCCGGCUGGGCAACAUUUCGAGGGGACCGUCCCCUCGGUAAUGGCGGAUGGGACCCA [C48U A77G]	0.612
GGCCGGCAUGGUCCCAGCCUCCUCGCUGGCGCCGGCUGGGCAACAUUGCGAGGGGACCGUCCCCUCGGAAAUGGCGAAUGGGACCCA [C48G U69A]	0.956
GGCCGGCAUGGUCCCAGCCUCCUCGCUGGCGCCGGCUGGGCAACAUUUCGAGGGGACCGUCCCCUCGGUACUGGCGAAUGGGACCCA [C48U A71C]	0.789
GGCCGGCAUGGUCCCAGCCUCCUCGCUGGCGCCGGCUGGGCAACAUUUCGAGGGGACCGUCCCCUCGGUAUUGGCGAAUGGGACCCA [C48U A71U]	0.585

Variant	self-cleavage
GGCCGGCAUGGUCCCAGCCUCCUCGCUGGCGCCGGCUGGGCAACAUUUCGAGGGGACCGUCCCCUCGGUAAUGGCGAAUGGUACCCA [C48U G82U]	0.437
GGCCGGCAUGGUCCCAGCCUCCUCGCUGGCGCCGGCUGGGCAACAUUUCGAGGGGACCGUCCCCUCGGUAAUGGCGAAUGGAACCCA [C48U G82A]	0.532
GGCCGGCAUGGUCCCAGCCUCCUCGCUGGCGCCGGCUGGGCAACAUUUCGAGGGGAUCGUCCCCUCGGUAAUGGCGAAUGGGACCCA [C48U C57U]	0.969
GGCCGGCAUGGUCCCAGCCUCCUCGCUGGCGCCGGCUGGGCAACAUUUCGAGGGGAGCGUCCCCUCGGUAAUGGCGAAUGGGACCCA [C48U C57G]	0.798
GGCCGGCAUGGUCCCAGCCUCCUCGCUGGCGCCGGCUGGGCAACAUUUCGAGGGGACCGUCCCCUCGGUAAUGGCGAACGGGACCCA [C48U U79C]	0.45
GGCCGGCAUGGUCCCAGCCUCCUCGCUGGCGCCGGCUGGGCAACAUUUCGAGGGGACCGUCCCCCCGGUAAUGGCGAAUGGGACCCA [C48U U65C]	1.07
GGCCGGCAUGGUCCCAGCCUCCUCGCUGGCGCCGGCUGGGCAACAUUUCGAGGGGACCGUCCCCGCGGUAAUGGCGAAUGGGACCCA [C48U U65G]	0.748
GGCCGGCAUGGUCCCAGCCUCCUCGCUGGCGCCGGCUGGGCAACAUUUCCAGGGGACCGUCCCCUCGGUAAUGGCGAAUGGGACCCA [C48U G50C]	0.965
GGCCGGCAUGGUCCCAGCCUCCUCGCUGGCGCCGGCUGGGCAACAUUUCGAGGGGACCUUCCCCUCGGUAAUGGCGAAUGGGACCCA [C48U G59U]	1.06
GGCCGGCAUGGUCCCAGCCUCCUCGCUGGCGCCGGCUGGGCAACAUUUCGAGGGGACCGUCGCCUCGGUAAUGGCGAAUGGGACCCA [C48U C62G]	0.485
GGCCGGCAUGGUCCCAGCCUCCUCGCUGGCGCCGGCUGGGCAACAUUUCGAGGGGACCGUCUCCUCGGUAAUGGCGAAUGGGACCCA [C48U C62U]	1.15
GGCCGGCAUGGUCCCAGCCUCCUCGCUGGCGCCGGCUGGGCAACAUUUCGAGGGGACCGUCACCUCGGUAAUGGCGAAUGGGACCCA [C48U C62A]	0.847
GGCCGGCAUGGUCCCAGCCUCCUCGCUGGCGCCGGCUGGGCAACAUUUCGAGGGGACUGUCCCCUCGGUAAUGGCGAAUGGGACCCA [C48U C58U]	0.904
GGCCGGCAUGGUCCCAGCCUCCUCGCUGGCGCCGGCUGGGCAACAUUUCGAGGGGACCGUCCCCUCGAUAAUGGCGAAUGGGACCCA [C48U G68A]	0.885
GGCCGGCAUGGUCCCAGCCUCCUCGCUGGCGCCGGCUGGGCAACAUUUCGAGGGGACCGUCCCGUCGGUAAUGGCGAAUGGGACCCA [C48U C64G]	0.721
GGCCGGCAUGGUCCCAGCCUCCUCGCUGGCGCCGGCUGGGCAACAUUUCGAGGGGACCGUCCCCUCGGUAAUGUCGAAUGGGACCCA [C48U G74U]	0.554
GGCCGGCAUGGUCCCAGCCUCCUCGCUGGCGCCGGCUGGGCAACAUUUCGAGGAGACCGUCCCCUCGGUAAUGGCGAAUGGGACCCA [C48U G54A]	0.813
GGCCGGCAUGGUCCCAGCCUCCUCGCUGGCGCCGGCUGGGCAACAUUGCGAGGGGACCGUCCCCGCGGUAAUGGCGAAUGGGACCCA [C48G U65G]	0.504
GGCCGGCAUGGUCCCAGCCUCCUCGCUGGCGCCGGCUGGGCAACAUUUCGAGGGGACCGACCCCUCGGUAAUGGCGAAUGGGACCCA [C48U U60A]	1
GGCCGGCAUGGUCCCAGCCUCCUCGCUGGCGCCGGCUGGGCAACAUUUCGAGGGGACCGGCCCCUCGGUAAUGGCGAAUGGGACCCA [C48U U60G]	0.776
